Experimental data: US20240209086A1 (PETMEDIX, published 2024)

target: canine CD3 on canine T cells (canine PBMC) (canine, UniProt P27597 22-202); experiment: cell-based or functional assay
Sequence (P27597 22-202 limits assumed, chain 1 of 3): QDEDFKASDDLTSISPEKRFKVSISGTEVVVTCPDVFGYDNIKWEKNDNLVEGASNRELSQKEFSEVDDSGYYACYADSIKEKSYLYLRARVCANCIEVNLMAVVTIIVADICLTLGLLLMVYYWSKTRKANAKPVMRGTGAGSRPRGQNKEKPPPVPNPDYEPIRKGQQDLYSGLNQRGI
Sequence (chain, as listed by the source limits assumed, chain 2 of 3): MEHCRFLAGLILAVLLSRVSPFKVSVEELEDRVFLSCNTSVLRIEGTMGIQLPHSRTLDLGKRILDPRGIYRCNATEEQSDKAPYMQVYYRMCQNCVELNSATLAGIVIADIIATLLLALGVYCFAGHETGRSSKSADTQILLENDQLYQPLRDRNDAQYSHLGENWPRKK
Sequence (chain, as listed by the source limits assumed, chain 3 of 3): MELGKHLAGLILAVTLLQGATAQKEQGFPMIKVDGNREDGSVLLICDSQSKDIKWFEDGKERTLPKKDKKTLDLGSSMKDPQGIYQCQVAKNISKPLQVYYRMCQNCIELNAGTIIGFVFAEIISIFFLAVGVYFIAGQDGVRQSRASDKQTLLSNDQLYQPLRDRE

| Binder | CD25 Activation, Day 6, IS | CD25 Activation, Day 6, PB | CD25 Activation, Day 9, IS | CD25 Activation, Day 9, PB | IFNy Concentration pg/ml, Day 6, IS [pg/mL] | IFNy Concentration pg/ml, Day 9, IS [pg/mL] | IFNy Concentration pg/ml, Day 9, PB [pg/mL] | Ki67 Proliferation, Day 6, IS | Ki67 Proliferation, Day 6, PB | Ki67 Proliferation, Day 9, IS |
| --- | --- | --- | --- | --- | --- | --- | --- | --- | --- | --- |
| PMX195 (monospecific anti-canine CD3, canine IgG-B effector function deficient Fc) (antibody, V domains shown) VH: EVQLVESGGDLVKPAGSLRLSCMASGFTFSSYSMSWVRQAPEKGLQLVAGINGDGSTTYYTDAVKGRFTISRDNAKNTVYLQMNNLRVEDSAMYYCAKGAGTGDYWGQGTLVTVSS VL: SYELTQPPSLNVTLRETAHITCGGDRIGSRYVQWIQQNPGQAPVVVIYKDSNRPTGIPERFSGANSGNTATLTISGALAEDEADYYCQVGDSGNWVFGGGTQLTVL | 10.4 | 16.8 | 7.58 | 14.7 | 63.9 | 208 | 627 | 2.94 | 0.43 | 2.33 |
| PMX194 (monospecific anti-canine CD3, canine IgG-B effector function deficient Fc) (antibody, V domains shown) VH: EVQLVESGGDLVKPGGSLRLSCVASGFTFSNYHMSWVRQAPGKGLQWVAYSNSGRMSTDYADAVKGRFTISRDNAKNTLYLQMNSLRPEDTAVYYCATVIYGLFDYWGQGTLVTVSS VL: DIVMTQTPLSLSVSPGEPASISCKASQSLLYSNGNTYLYWFRQKPGQSPQRLIYKVSKRDSGVPDRFSGSGSGTDFTLRIRRVEADDAGVYYCGQGTQDPYTFSQGTKLEIK | 13 | 17.3 | 7.96 | 17.1 | 133 | 170 | 568 | 1.46 | 0.21 | 1.49 |
| PMX184 (monospecific anti-canine CD3, canine IgG-B effector function deficient Fc) (antibody, V domains shown) VH: ELTLQESGPGLVKPSQTLSLTCGVSGGSVTRSHYWNWVRQRPGRGLEWMGYWTGSTNYNPAFQGRISITADTAKNQFSLQLRSMTTEDTAVYFCARETTIPTFFFDYWGQGTLVTVSS VL: SYVLTQLPSKNVTLKQPAHITCGGDNIGSKSVHWYQQKLGQAPVLIIYYDSSRPTGIPERFSGANSGNTATLTISGALAEDEADYYCQVWDSGAKAWVFGEGTQLTVL | 10.4 | 28.8 | 12.3 | 28.2 | 74.8 | 322 | 3290 | 2.42 | 1.47 | 1.64 |
| PMX185 (monospecific anti-canine CD3, canine IgG-B effector function deficient Fc) (antibody) heavy: EVQLVESGGDLVKPGGSLRLSCVASGFTFSSYHMSWVRQAPGKGLQWVASINSGGSRTSYVDAVKGRFTISRDNAKKTLYLQMNSLRAEDTAVYYCASGRTGPKLGLGDYGMDSWGHGTSLFVSSASTTAPSVFPLAPSCGSTSGSTVALACLVSGYFPEPVTVSWNSGSLTSGVHTFPSVLQSSGLYSLSSMVTVPSSRWPSETFTCNVAHPASKTKVDKPVPKRENGRVPRPPDCPKCPAPESLGGPSVFIFPPKPKDTLLIARTPEVTCVVVDLGREDPEVQISWFVDGKQMQTAKTQPREEQFNGTYRVVSVLPIGHQDWLKGKQFTCKVNHIGLPSPIERTISKARGQAHQPSVYVLPPSREELSKNTVSLTCLIKDFFPPDIDVEWQSNGQQEPESKYRTTPPQLDEDGSYFLYSKLSVDKSRWQRGDTFICAVMHEALHNHYTQKSLSHSPGK VL: SYVLTQLPSKNVTLKQPAHITCGGDNIGSKSVHWYQQKLGQAPVMIIYYDSSRPTGIPERFSGANSGNTATLTISGALAEDEADYYCQVWDSSAKAWVFGEGTQLTVL | 14.7 | 11.9 | 10.3 | 13.9 | 86.7 | 217 | 166 | 0.93 | 0.85 | 2.65 |
| PMX198 (monospecific anti-canine CD3, canine IgG-B effector function deficient Fc) (antibody, V domains shown) VH: EFTLQESGPGLVKPSQTLSLTCIVSGGSVTSSYYWNWIRQRPGRGLEWMGYWTGSTNYNPAFQGRISITPDTAKNQFSLQLSSMTTEDTAVYYCAREGGSSLQAFGNWGQGTLVTVSS VL: SYVLTQLPSKNVTLKQPAHITCGGDNIGRKSVHWYQQKLGQAPILIIYYDSSRPTGIPERFSGANSGNTATLTISGALAEDEADYYCQVWDSSAKASVFGGGTHLTVL | 11.3 | 26.8 | 10.4 | 25.5 | 82.8 | 191 | 2790 | 0.87 | 0.61 | 4.37 |
| PMX196 (monospecific anti-canine CD3, canine IgG-B effector function deficient Fc) (antibody, V domains shown) VH: ELTLQESGPGLVKPSQTLSLTCVVSGGSVTSSYYWNWIRQRPGRGLEWMGYWTGSTIYNPAFQGRISITADTAKNQFSLQLSSMTTEDTAVYFCVRERRMAFGSWGQGTLVIVSS VL: SYVLTQLPSKSVTLKQPAHITCGGDNIGRKSVHWYQQKLGQAPVLIISFDNNRPTGIPERFSGANSGNTATLTISGALAEDEADYYCQVWDSSAKASVFGGGTHLTVL | 10.4 | 23 | 6.6 | 17.1 | 34.8 | 160 | 2080 | 0.92 | 1.41 | 0.94 |
| PMX197 (monospecific anti-canine CD3, canine IgG-B effector function deficient Fc) (antibody, V domains shown) VH: ELTLQESGPGLVKPSQTLSLTCLVSGGSVTRSYYWNWIRQRPGRGLEWMGYWTGSTNYNPAFQGRISIIPDTAKNQFSLQLTSMTTDDTAIYFCAREGGRTLGAFADWGQGTLVTVSS VL: SYVLTQLPSKNVTLKQPAHITCGGDKIGSKNVHWYQQKLGQAPVLIIYYDSSRPTGIPERFSGANSGNTATLTISGALAEDEADYYCQVWDSSAKASVFGGGTHLTVL | 10.5 | 23.3 | 9.24 | 14 | 58 | 307 | 2340 | 1.43 | 0.67 | 3.21 |
| PMX193 (monospecific anti-canine CD3, canine IgG-B effector function deficient Fc) (antibody, V domains shown) VH: EVQLVESGGDLVKPGGSLRLSCVASGFTFSTYHMSWVRQAPGKGLQWVAYISSGGSRTNYADAVKGRFTISRDNAKNTLYLQMNSLRAEDAAVFYCARHYGSSLFDYWGQGTLVTVSS VL: DIVMTQTPLSLSVSPGEPASISCKASQSLLHINGNTYLYWFRQKPGQSPQRLIYKVSNRDPGVPDRFSGSGSGTDFTLRISRVEADDAGVYYCGQGIQDPTFGKGTHLEIK | 8.3 | 11.1 | 12.6 | 16.1 | 52.6 | 544 | 401 | 0.64 | 0.11 | 1.53 |

same assay, conditions: not given

| Binder | Ki67 Proliferation, Day 9, PB |
| --- | --- |
| PMX195 (monospecific anti-canine CD3, canine IgG-B effector function deficient Fc) (antibody, V domains shown) VH: EVQLVESGGDLVKPAGSLRLSCMASGFTFSSYSMSWVRQAPEKGLQLVAGINGDGSTTYYTDAVKGRFTISRDNAKNTVYLQMNNLRVEDSAMYYCAKGAGTGDYWGQGTLVTVSS VL: SYELTQPPSLNVTLRETAHITCGGDRIGSRYVQWIQQNPGQAPVVVIYKDSNRPTGIPERFSGANSGNTATLTISGALAEDEADYYCQVGDSGNWVFGGGTQLTVL | 0.67 |
| PMX194 (monospecific anti-canine CD3, canine IgG-B effector function deficient Fc) (antibody, V domains shown) VH: EVQLVESGGDLVKPGGSLRLSCVASGFTFSNYHMSWVRQAPGKGLQWVAYSNSGRMSTDYADAVKGRFTISRDNAKNTLYLQMNSLRPEDTAVYYCATVIYGLFDYWGQGTLVTVSS VL: DIVMTQTPLSLSVSPGEPASISCKASQSLLYSNGNTYLYWFRQKPGQSPQRLIYKVSKRDSGVPDRFSGSGSGTDFTLRIRRVEADDAGVYYCGQGTQDPYTFSQGTKLEIK | 1.11 |
| PMX184 (monospecific anti-canine CD3, canine IgG-B effector function deficient Fc) (antibody, V domains shown) VH: ELTLQESGPGLVKPSQTLSLTCGVSGGSVTRSHYWNWVRQRPGRGLEWMGYWTGSTNYNPAFQGRISITADTAKNQFSLQLRSMTTEDTAVYFCARETTIPTFFFDYWGQGTLVTVSS VL: SYVLTQLPSKNVTLKQPAHITCGGDNIGSKSVHWYQQKLGQAPVLIIYYDSSRPTGIPERFSGANSGNTATLTISGALAEDEADYYCQVWDSGAKAWVFGEGTQLTVL | 0.75 |
| PMX185 (monospecific anti-canine CD3, canine IgG-B effector function deficient Fc) (antibody) heavy: EVQLVESGGDLVKPGGSLRLSCVASGFTFSSYHMSWVRQAPGKGLQWVASINSGGSRTSYVDAVKGRFTISRDNAKKTLYLQMNSLRAEDTAVYYCASGRTGPKLGLGDYGMDSWGHGTSLFVSSASTTAPSVFPLAPSCGSTSGSTVALACLVSGYFPEPVTVSWNSGSLTSGVHTFPSVLQSSGLYSLSSMVTVPSSRWPSETFTCNVAHPASKTKVDKPVPKRENGRVPRPPDCPKCPAPESLGGPSVFIFPPKPKDTLLIARTPEVTCVVVDLGREDPEVQISWFVDGKQMQTAKTQPREEQFNGTYRVVSVLPIGHQDWLKGKQFTCKVNHIGLPSPIERTISKARGQAHQPSVYVLPPSREELSKNTVSLTCLIKDFFPPDIDVEWQSNGQQEPESKYRTTPPQLDEDGSYFLYSKLSVDKSRWQRGDTFICAVMHEALHNHYTQKSLSHSPGK VL: SYVLTQLPSKNVTLKQPAHITCGGDNIGSKSVHWYQQKLGQAPVMIIYYDSSRPTGIPERFSGANSGNTATLTISGALAEDEADYYCQVWDSSAKAWVFGEGTQLTVL | 0.39 |
| PMX198 (monospecific anti-canine CD3, canine IgG-B effector function deficient Fc) (antibody, V domains shown) VH: EFTLQESGPGLVKPSQTLSLTCIVSGGSVTSSYYWNWIRQRPGRGLEWMGYWTGSTNYNPAFQGRISITPDTAKNQFSLQLSSMTTEDTAVYYCAREGGSSLQAFGNWGQGTLVTVSS VL: SYVLTQLPSKNVTLKQPAHITCGGDNIGRKSVHWYQQKLGQAPILIIYYDSSRPTGIPERFSGANSGNTATLTISGALAEDEADYYCQVWDSSAKASVFGGGTHLTVL | 0 |
| PMX196 (monospecific anti-canine CD3, canine IgG-B effector function deficient Fc) (antibody, V domains shown) VH: ELTLQESGPGLVKPSQTLSLTCVVSGGSVTSSYYWNWIRQRPGRGLEWMGYWTGSTIYNPAFQGRISITADTAKNQFSLQLSSMTTEDTAVYFCVRERRMAFGSWGQGTLVIVSS VL: SYVLTQLPSKSVTLKQPAHITCGGDNIGRKSVHWYQQKLGQAPVLIISFDNNRPTGIPERFSGANSGNTATLTISGALAEDEADYYCQVWDSSAKASVFGGGTHLTVL | 0 |
| PMX197 (monospecific anti-canine CD3, canine IgG-B effector function deficient Fc) (antibody, V domains shown) VH: ELTLQESGPGLVKPSQTLSLTCLVSGGSVTRSYYWNWIRQRPGRGLEWMGYWTGSTNYNPAFQGRISIIPDTAKNQFSLQLTSMTTDDTAIYFCAREGGRTLGAFADWGQGTLVTVSS VL: SYVLTQLPSKNVTLKQPAHITCGGDKIGSKNVHWYQQKLGQAPVLIIYYDSSRPTGIPERFSGANSGNTATLTISGALAEDEADYYCQVWDSSAKASVFGGGTHLTVL | 0 |
| PMX193 (monospecific anti-canine CD3, canine IgG-B effector function deficient Fc) (antibody, V domains shown) VH: EVQLVESGGDLVKPGGSLRLSCVASGFTFSTYHMSWVRQAPGKGLQWVAYISSGGSRTNYADAVKGRFTISRDNAKNTLYLQMNSLRAEDAAVFYCARHYGSSLFDYWGQGTLVTVSS VL: DIVMTQTPLSLSVSPGEPASISCKASQSLLHINGNTYLYWFRQKPGQSPQRLIYKVSNRDPGVPDRFSGSGSGTDFTLRISRVEADDAGVYYCGQGIQDPTFGKGTHLEIK | 0.18 |
